Experimental data taken from the DeepSol protein solubility set.

Assay: soluble on expression in E. coli; label from the status in PepcDB or PDB records

Sequence | soluble on expression in E. coli
MSLKISIVTSTNVYADIAKNIVGKYGSAKAIIKNSATDPHDFEPTTQDAKELSSTNIIVANGLGYDSWMNKLASSVDKKPVLVGEELMKLKKGANPHIWYSLSMPTEYVDYLVKRLSKIDSKHKAYFEANGKKYLAKINQVKALAKNSKKTDKMVFVSEPVFDYALAEAGYKIGDKDFEKAVENNTDPSPKTINRMTNDIKNKKIAFFVNNTQSSSSTVKTFVKLAKQNNIPVLNVRETIPNHTTYLNWMKENYQNLANISKEGHHHHHH | soluble
MSLKITRITVYQVDLPLEHPYWLSGGRLKFELLDATLVKLETDAGITGWGEGTPWGHTYVPAHGPGIRAGIETMAPFVLGLDPRRLLDVERAMDIALPGHLYAKSPIDMACWDIAGQAAGLPIADLMGGGSRTPRPIASSVGAKSVEETRAVIDRYRQRGYVAHSVKIGGDVERDIARIRDVEDIREPGEIVLYDVNRGWTRQQALRVMRATEDLHVMFEQPGETLDDIAAIRPLHSAPVSVDECLVTLQDAARVARDGLAEVFGIKLNRVGGLTRAARMRDIALTHGIDMFVMATGGSVLADAEALHLAATIPDHACHAVWACQDMLTVDIAGGRGPRNIDGHLHLPETPGLGVHPDEDALGDPVAVYSEGHHHHHH | soluble
MSLKITSISVQQKNKERYNIFIDEKYNFSVDEEVLARYQLMKGKTLTEADIEEIKQADMVRKGLNKAINFLSHRVRSEKEIRDYLRKQEMEPFAVDEILKKLADMDYINDVEFAELYTKTQIKTTLKGPRTIERELVEKGLTREIISQVMEEYASDIQLENATKQAMKIMKRNNKSAKKMLQQKIITDLIQKGYSSEVAKMAAIEATSELDVADEADILQKQVEKTIRKNKRYKPSIAKQKTITSLMQKGFSYDTIQSYLTENEISEGHHHHHH | not soluble
MSLKKAAIITIGSELLEGLILNKNAQFLCQELKNLGYRVVKVSTVGDDLISISEEVKTLLLKVDLLILTGGLGPTQDDLTRDAVAKVLNRSLKLNEELLSKIKEKIKKYHSEIPQNIERQALVIDGAEVLDNPVGSAPGQLLTVDGKIVILLPGPPRELIPMFNALKDRLRTPDALYQVVLKYYSIPEAVLEDLLKDILYSQNIVEVATMADHVEGVRLRLTTHMKNKEYLDEMVKKILDKTGEHLYGVNDEKMEEVVVRLLKDRKKTLAVAESCTGGMLSSLVVNVPGASEVFIGGVVAYSNDLKKHILGVREDTLKKHGAVSEECVQEMTEGLKKLTGADICVSISGIAGPSGGTPEKPVGTVFIDIFEHEHITMRYNFTGDRNMIRTRSAMMALENLRKYLKGRERVEGGSHHHHHH | soluble
MSLKKAIAYMRFSSPGQMSGDSLNRQRRLIAEWLKVNSDYYLDTITYEDLGLSAFKGKHAQSGAFSEFLDAIEHGYILPGTTLLVESLDRLSREKVGEAIERLKLILNHGIDVITLCDNTVYNIDSLNEPYSLIKAILIAQRANEESEIKSSRVKLSWKKKRQDALESGTIMTASCPRWLSLDDKRTAFVPDPDRVKTIELIFKLRMERRSLNAIAKYLNDHAVKNFSGKESAWGPSVIEKLLANKALIGICVPSYRARGKGISEIAGYYPRVISDDLFYAVQEIRLAPFGISNSEGHHHHHH | soluble
MSLKKEGDATAVLIGYPSVGKSTLLNKLTGAKSEVADYDFTTLKPVPGILNYKGASIQIIDVPGIIEGAASGRGRGKEVISAVRVADLIIIVADVFNLHTIDIVKRELYEGGIRLDQKPPDVVIRKKERGGVRISSTVPLSIDEATITSVLKEYKIHSADVVIREDITIERLIDALAGNRVYIPSLTVVNKIDLMDVDVADAIKVSAEKGINLDLLKEQIYRKLEFIRVYLKPPGGKVDFSEPMILRRGATVEDICRKLHRDFVENFRYAKVWGKSVKFDGQRVGLEHVVEDGDIITIYAEGHHHHHH | soluble
MSLKKIILSIILISNYCYASDCFEITGKAYNIDPLILKAIAWNESKCKSGIKSKTNKNGTYDIGIMQINSSHLDLLSKFNISEDDLLNDACINISVAGYILASNIKSRGNTWDAVGAYNAGYFNTPNAVELRRQYAMKIYKTYNKLKNNEQIIDEGHHHHHH | not soluble
MSLKKIVIVGAGFAGVSATRLLAKNLKNDAEITVIDKHDFQTSMTQLHEVAASRVEADAVQYHLNRTIGKFNNVKVVKESLVELDKANKKVITDKNSYDYDYLVVSMGGEPNDFGVPGVNEYGFTLWSLEDALKIKAHLKEMVQAAAKEADSEKRKKLLTFSVAGSGFTGIEMAGELIDWRKKASKKYGIPESEFTINIVEMMPTIMNILDRSLADKALVYLQNKNINVLVNHGITAVAQDHITVNVGGRDEEKVVKEIPGNTLIWTTGVQGNTEAEACQLSETERGHRLQANEYMEAIGEENHGIYVAGDVSGYIVPENGRPTPQIVEAAEQTGSTAAKNIIADIKGGEKEGHHHHHH | soluble
MSLKKLLVIRNDKIGDFMLAWPSFAMLKASLPDCHITALVPKYTAALAELCPWIDAVIIDPGQQADKAQHKQLVQTVKAQQFDASINLFSTMYNALLVWKARIPYRLAPATKLAQIFYQHRIKQKRSQSAKPEYEYNLDLVRAFLRDIGQPIIEPNAPYLTFPAEQLAAQRSKLAEQLDIGPDKAWLFVHAGSGGSANNLSLEQYCELVTGVMDEHKQVVLTAGPGEEEKAAQLQSLLAEQGVLAALYAKNDGLVDFTRSLACAQLFIAGSTGPLHIAAALDVPTVGFFPAKRSATPLRWRPLNSQGKHIAFCPPPADDKANQENMGRIDMKSVLTELAPWLRSVQLEGHHHHHH | soluble
MSLKKNIYPNKEGCPVEFTLDVIGGKWKGILFYHMIDGKKRFNEFRRICPSITQRMLTLQLRELEADGIVHREVYHQVPPKVEYSLTEFGRTLEPIVLQMKEWGESNRDVLESYRSNGLVKDQQKEGGSHHHHHH | soluble
MSLKKRIFVTGGAEGIGRAIVEAFCKDGHQVAFCDINAVSGQQTARDTGAIFHPVDVSDKEALESCMQQILDEWKDIDIVINNVGISKFSSITETSVEDFDKILSVNLRPVFITSRLLAIHRKAQSDSNPYGRIINICSTRYLMSEPGSEGYAASKGGIYSLTHALALSLSEWNITVNSIAPGWIQTQNYDQLRPEDHSQHPSRRVGKPEDIARMCLFLCRDENDFINGENITIDGGMTKKMIYTEGHHHHHH | soluble
MSLKKSPLTIVHLTDIHYDPEYVVGVNADCKAEACCRTLPDLAPATPETAAGYWSDYRDCDTPWHGVVDVMEHIRRQHPKIDAIYFTGDIVHHFTWNTSIETNEGAMRQVFDLMKRVFPGVPLYPVLGNHESHPANLYAPHDVEASYRMDYLYDFIADQWADWLPIKDIRPTLTEGGYYTVRTPYGVRIIGLNNNPCFVHNFWLFYSLDYFMPQLQWLHDTLLQAEWDNERVHILAHVPSYDDSCFIGWTREYRKIVERFAHIIAGQFNGHSHVDEFNLYYRRDDPSRAVSVAWNGGSTTTFTKLNPNYKVFQFDPVTFEPLEQETWMYNLTDANLTPDQRPSWYRLYSFKSYYQLPDLSVDSLHRLVQRFAQSEQQLHRYWQAKQKYSDPLLQEGCTSTCLRNALCAIVRTEHDDERACELLYERAAQSEGHHHHHH | not soluble
MSLKLFCFKAIIFPIVGGSFNNGTNVFQSTVIVISLDGFRADYLYRGFTPNLLSLAERNVHVPFLIPSFPSITFPNHYTIVTGLYPESHGIVSNNFFDPVTGKQFVNSMPECNKDPTWWDKGEPIWVNAERNNVRSAVHMWPGNEVENHGYRPTYSDGFNFDTTLREKKDRILEWLDLPDKDRPQLLLAYAPHVDMVGHAFGPDSPELNIIIQEVDIVIGELIEGLKKRNIDKHVNIIFLSDHGMAPTSDNRLIWLDNMFNLSAVAHRDAWPLGGFRGESDLDDEYIYESLVNYSRSSLPSAENWNVYSKKDIPSRWHYSNNERIAPVWMIPDVGWSLVSMLDHSPELEYEPLGVHGYDNLSPVMRALFIASGSSFKNFKGKKLAPFQNTEIYGILSHILDLPAQPNNGTYEGALPLRRNRNSTKEWLLKDIEQAYSKLIEGHHHHHH | not soluble
MSLKLIKGLNLLRPCSDTPFLENAFVVIDGDEFLSVGTTEPEGEFEEVLDCGGKFALPGLINAHHHLYSALAVGMPPPAKTPLNFTQILEEVWWKLDLALDHDATQASFESGLIDSLKAGTTTVIDHHCSPSFIEGSLSLLGDTGKKLGIATGLAFEVTDRNGQELFERSLQENLDAAEKHSQDQELAALLGLHASFTLSEESLKKVAEVHSKRSNWGIHTHLSEDRADEEDARNRGHASVVERLDHFGLINQSAMLIHGVHSLESDAELIQKHKAHLVHNPTSNANNRIGMLSNQAAERMKPGLGTDGMQSNMIREAKEGMLIRSSHMSAGDAGVDYQAILFDHNPRIASAVFGRSIGRVEPGYRADLAIYDYHPRTEVHSDNVFGHVFFGLGEPCDVMSGGLMRVQNHLLQGNDEQAAKQEAAEQSRKLWQKMQEGHHHHHH | soluble
MSLKLLHERMMHSLARYPRQTAVVDEQDALSYEALELRIREFVAMLCALGVGQGQRILLWAHKSVDLVAVMQAALRLGVVYVPVDPLSPVSRLEKIAGDSQAVLVLCTAARLEELAGSALAQVRSVVLDDPASAGYWRNIDTGSSVVPTLAIQPDDLAYILYTSGSTGVPKGVALSHGNALAFVDWACERYCFQPGERFANHAPLHFDLSVLDIYCALNVGATVCLVPESIAFSPRLLTDFIRQHEISIWYSVPSVLMMMMQDGDLLSDIQDTLRVLLFAGEPFPVKHLRDLRAAYADVRLANLFGPTETNVCTAFEVGAIDPERVLPVPIGTAASGNQVWAQKPDGSRCAVGEEGELVVQGPTVMLGYFAKPAQEGPYKTGDMVRQRPDGNYEYLGRRDDMLKVRGNRIERGEVEAALLAHPQVSEAAVLVVGEGMNAQLWGVLVAHTRDALSLIDLKRHCAQRLPRYMIIDKVLCLDALPRNANGKVDRFALARQVEGHHHHHH | soluble
MSLKLSNERAEWQAQMKKSVISEERQRLARDLHDAVSQQLFAISMMTSAVLEHVKDADDKTVKRIRMVEHMAGEAQNEMRALLLHLRPVTLEGKGLKEGLTELLDEFRKKQPIDIEWDIQDTAISKGVEDHLFRIVQEALSNVFRHSKASKVTVILGIKNSQLRLKVIDNGKGFKMDQVKASSYGLNSMKERASEIGGVAEVISVEGKGTQIEVKVPIFPEEKGENERDSSIIDEGHHHHHH | soluble
MSLKLTRLSLWHIPLTSHETYYMAGGKTCDTTMTTLIRLDTDSGLSGWGEVCPIPHYLPAYADGVAPALTELAPIILGADPLGAEALMERCNAYLLGHDYAKSALDIALWDITARAAGLPLHALLGGRAMADMPLYHSITCVAPDEMARIARDAQAQGMTQFQVKLGADGDWQADVARLSHVREAVGPGPLVYGDWNCGSDSLTASRVGRAVAHLDVMLEQPCRTIQECAAVRDATGLPMKLDETAHDIPSLLDGHRRGCMDAVALKLSKFGGLSATRRARDLCLALGTRMCIEDTWGSDVTTAALLHLAAATPARGLMNTCDLSHYVGPRLAPDGPTRHMGRIAPPEGPGLGITPDMDVLGTPQLILDEGHHHHHH | soluble
MSLKMSDIAKMAGVSKAAVSFALNGKPGVSDETRKKIFKVIKDQGYEPLRKHKKGGVRKIASISLIIIQDRTGMMNRSYASLPFFDTLVSELSQNVSGAGGQMQIVNLDINHLHEGLNNEALQQSKASIVLATDLNQKQVQLINRKLRNVIFVDNYFEYIQADFVSIDNFQGAYRAGKFIVKKGYRKIGYVASNHAISNFLQRRSGFRKAMREANIQIPPEYVFSLNPTELRGSLPALFRQKNNWPEAIFCEDDYMALRLLNALTRQGIKVPQDIAVMGFDDISEDTMVIPELTTIHVPITQIVDQAINQLQCKVADTDWLPQKCFISTKLIERESEGHHHHHH | not soluble
MSLKNIEKELENLRTIFRSIGLIKFKPYFSYMGLFKDDTMFGLYKEKCLYLRKSDQYLQEIKDTIPIHFLSDHKISRQSKIFYLVPQHIIENISSYSHWITSSISEYQRLRSKIRTENQTKIRILLNMNINIERLLARVNINTVDEFKQVGETKAFVRLIQQGFEVNQLLLFKLYGALQHKYIYMLSLEEKKRLLEQADSALYDAGLRKRFTVEGHHHHHH | soluble
